Measurements reported in PMC8065144.
Several values for one entry are separate records, joined by “and”; a condition that tells them apart may be missing. Equal entries are not always repeated.

Biological target: HA-tagged Glial Lazarillo (GLaz-HA) (Drosophila)
Assay: affinity purification on anti-HA beads and Western blot (bands of oligomers); GLaz-HA from larval brain extract concentrated on anti-HA beads, detected with anti-HA; the tetramers and dimers are destabilized into monomers by heat treatment or the reducing agent DTT

HA-tagged Glial Lazarillo (GLaz-HA) (ligand)
stoichiometry N: 4 and 2
